{"source": "paper PMC10983791", "key": {"[1]": {"substrate": "NC[C@H](O)c1ccc(O)c(O)c1", "experiment": "KM determination by method of initial rates, PNMT", "type": "biochemical, human", "details": "other: PNMT; SAM 100 μM; fit to substrate inhibition model; pH 8.0"}, "[2]": {"substrate": "C[S+](CC[C@H](N)C(=O)[O-])C[C@H]1O[C@@H](n2cnc3c(N)ncnc32)[C@H](O)[C@@H]1O", "experiment": "KM determination by method of initial rates, PNMT", "type": "biochemical, human", "details": "other: PNMT; norepinephrine 100 μM; pH 8.0"}, "[3]": {"substrate": "C[S+](CC[C@H](N)C(=O)[O-])C[C@H]1O[C@@H](n2cnc3c(N)ncnc32)[C@H](O)[C@@H]1O", "experiment": "KM determination by method of initial rates, HNMT", "type": "biochemical, human", "details": "other: HNMT; substrate 100 μM; MTase-Glo readout; pH 8.0"}, "[4]": {"substrate": "NCCc1c[nH]cn1", "experiment": "purified protein, by the assay type", "details": "other: HNMT; SAM 100 μM; MTase-Glo readout; pH 8.0"}, "[5]": {"substrate": "C[S+](CC[C@H](N)C(=O)[O-])C[C@H]1O[C@@H](n2cnc3c(N)ncnc32)[C@H](O)[C@@H]1O", "experiment": "KM determination by method of initial rates, NNMT", "type": "biochemical, human", "details": "other: NNMT; substrate 100 μM; MTase-Glo readout; pH 8.0"}, "[6]": {"substrate": "NC(=O)c1cccnc1", "experiment": "purified protein, by the assay type", "details": "other: NNMT; SAM 100 μM; MTase-Glo readout; pH 8.0"}, "[7]": {"substrate": "C[S+](CC[C@H](N)C(=O)[O-])C[C@H]1O[C@@H](n2cnc3c(N)ncnc32)[C@H](O)[C@@H]1O", "experiment": "KM determination by method of initial rates, GNMT", "type": "biochemical, human", "details": "other: GNMT; substrate 100 μM; MTase-Glo readout; pH 8.0"}, "[8]": {"substrate": "NC[C@H](O)c1ccc(O)c(O)c1", "experiment": "KM determination by method of initial rates, COMT", "type": "biochemical, human", "details": "other: COMT; SAM 100 μM; MTase-Glo readout; pH 8.0"}, "[9]": {"substrate": "C[S+](CC[C@H](N)C(=O)[O-])C[C@H]1O[C@@H](n2cnc3c(N)ncnc32)[C@H](O)[C@@H]1O", "experiment": "KM determination by method of initial rates, COMT", "type": "biochemical, human", "details": "other: COMT; substrate 100 μM; MTase-Glo readout; pH 8.0"}}, "data": [{"protein": "PNMT (Homo sapiens) (protein) MSGADRSPNAGAAPDSAPGQAAVASAYQRFEPRAYLRNNYAPPRGDLCNPNGVGPWKLRCLAQTFATGEVSGRTLIDIGSGPTVYQLLSACSHFEDITMTDFLEVNRQELGRWLQEEPGAFNWSMYSQHACLIEGKGECWQDKERQLRARVKRVLPIDVHQPQPLGAGSPAPLPADALVSAFCLEAVSPDLASFQRALDHITTLLRPGGHLLLIGALEESWYLAGEARLTVVPVSEEEVREALVRSGYKVRDLRTYIMPAHLQTGVDDVKGVFFAWAQKVGL", "values": [{"measurement": "Km", "setting": "[1]", "result": "16.2 ± 4.3", "unit": "µM"}, {"measurement": "Km", "setting": "[2]", "result": "3.6 ± 0.6", "unit": "µM"}]}, {"protein": "HNMT (Homo sapiens) (protein) MASSMRSLFSDHGKYVESFRRFLNHSTEHQCMQEFMDKKLPGIIGRIGDTKSEIKILSIGGGAGEIDLQILSKVQAQYPGVCINNEVVEPSAEQIAKYKELVAKTSNLENVKFAWHKETSSEYQSRMLEKKELQKWDFIHMIQMLYYVKDIPATLKFFHSLLGTNAKMLIIVVSGSSGWDKLWKKYGSRFPQDDLCQYITSDDLTQMLDNLGLKYECYDLLSTMDISDCFIDGNENGDLLWDFLTETCNFNATAPPDLRAELGKDLQEPEFSAKKEGKVLFNNTLSFIVIEA", "values": [{"measurement": "Km", "setting": "[3]", "result": "9.3 ± 2.1", "unit": "µM"}, {"measurement": "Km", "setting": "[4]", "result": "5.3 ± 2.1", "unit": "µM"}]}, {"protein": "NNMT (Homo sapiens) (protein) MESGFTSKDTYLSHFNPRDYLEKYYKFGSRHSAESQILKHLLKNLFKIFCLDGVKGDLLIDIGSGPTIYQLLSACESFKEIVVTDYSDQNLQELEKWLKKEPEAFDWSPVVTYVCDLEGNRVKGPEKEEKLRQAVKQVLKCDVTQSQPLGAVPLPPADCVLSTLCLDAACPDLPTYCRALRNLGSLLKPGGFLVIMDALKSSYYMIGEQKFSSLPLGREAVEAAVKEAGYTIEWFEVISQSYSSTMANNEGLFSLVARKLSRPL", "values": [{"measurement": "Km", "setting": "[5]", "result": "11.9 ± 5.7", "unit": "µM"}, {"measurement": "Km", "setting": "[6]", "result": "3.8 ± 0.5", "unit": "µM"}]}, {"protein": "GNMT (Homo sapiens) (protein) MVDSVYRTRSLGVAAEGLPDQYADGEAARVWQLYIGDTRSRTAEYKAWLLGLLRQHGCQRVLDVACGTGVDSIMLVEEGFSVTSVDASDKMLKYALKERWNRRHEPAFDKWVIEEANWMTLDKDVPQSAEGGFDAVICLGNSFAHLPDCKGDQSEHRLALKNIASMVRAGGLLVIDHRNYDHILSTGCAPPGKNIYYKSDLTKDVTTSVLIVNNKAHMVTLDYTVQVPGAGQDGSPGLSKFRLSYYPHCLASFTELLQAAFGGKCQHSVLGDFKPYKPGQTYIPCYFIHVLKRTD", "values": [{"measurement": "Km", "setting": "[7]", "result": "12.1 ± 3.6", "unit": "µM"}]}, {"protein": "COMT (Homo sapiens) (protein) MPEAPPLLLAAVLLGLVLLVVLLLLLRHWGWGLCLIGWNEFILQPIHNLLMGDTKEQRILNHVLQHAEPGNAQSVLEAIDTYCEQKEWAMNVGDKKGKIVDAVIQEHQPSVLLELGAYCGYSAVRMARLLSPGARLITIEINPDCAAITQRMVDFAGVKDKVTLVVGASQDIIPQLKKKYDVDTLDMVFLDHWKDRYLPDTLLLEECGLLRKGTVLLADNVICPGAPDFLAHVRGSSCFECTHYQSFLEYREVVDGLEKAIYKGPGSEAGP", "values": [{"measurement": "Km", "setting": "[8]", "result": "13.7 ± 2.2", "unit": "µM"}, {"measurement": "Km", "setting": "[9]", "result": "14.5 ± 1.8", "unit": "µM"}]}]}
